What was measured:
Conditions in all cases: 20 nM; 72 h
[1] = system: MCF10A; experiment: one-nucleolus phenotype percent effect (relative to siNT 0% and siNOL11 100%); higher = more cells with one nucleolus (ribosome biogenesis inhibition)
Protocol: (§1)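 After 72 h, cells were fixed and stained with Hoechst and anti-fibrillarin, and nucleoli per nucleus were counted with CellProfiler. Values are plate-adjusted percent effect for the one-nucleolus and 5+ nucleoli phenotypes, normalised to siNT (0%) and to the positive controls siNOL11 or siKIF11 (100%), as the mean of biological triplicates. Percent viability is the nuclei count relative to siNT.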

[2] = system: MCF10A; experiment: 5+ nucleoli phenotype percent effect (relative to siNT 0% and siKIF11 100%); higher = more cells with five or more nucleoli
Protocol: as §1

[3] = system: MCF10A; experiment: percent viability (nuclei count relative to siNT); higher = more viable cells
Protocol: as §1

Sequence | one-nucleolus phenotype percent effect [1] | 5+ nucleoli phenotype percent effect [2] | percent viability [3]
CUAGGUAUGGUCCCAGGGAUCC [hsa-miR-331-5p] | -17.6% | 19% | 111%
CUAGGUGGGGGGCUUGAAGC [hsa-miR-6802-5p] | 9.83% | -17% | 33.9%
CUAGUGAGGGACAGAACCAGGAUUC [hsa-miR-921] | 31.9% | -15.6% | 48.8%
CUAGUGCUCUCCGUUACAAGUA [hsa-miR-4473] | -11.7% | 18% | 37.8%
CUAUACAACCUACUGCCUUCCC [hsa-let-7b-3p] | 10.1% | -18.8% | 32.4%
CUAUACAACUUACUACUUUCCC [hsa-miR-98-3p] | -31.6% | 45.5% | 59.1%
CUAUACAAUCUACUGUCUUUC [hsa-let-7a-3p] | -10.4% | 10.6% | 93.9%
CUAUACAAUCUAUUGCCUUCCC [hsa-let-7f-1-3p] | -6.49% | -25% | 39.2%
CUAUACAGUCUACUGUCUUUCC [hsa-let-7f-2-3p] | -3.58% | 4.65% | 70.8%
CUAUACGACCUGCUGCCUUUCU [hsa-let-7d-3p] | -15.3% | 18.1% | 84.7%
CUAUACGGCCUCCUAGCUUUCC [hsa-let-7e-3p] | -18.7% | 7.57% | 45%
CUAUAUAUCAAACAUAUUCCU [hsa-miR-190a-3p] | -19.5% | 35.7% | 67.4%
CUAUGGCGAGACUGGCAUGUACUC [hsa-miR-8074] | -12.8% | 26.4% | 110%
CUAUUAAGGACAUUUGUGAUUC [hsa-miR-4477a] | -0.508% | -13.7% | 32.6%
CUCAAACCGGCUGUGCCUGUGG [hsa-miR-6715b-3p] | 10% | -11.8% | 62.7%
CUCAAGUAGUCUGACCAGGGGA [hsa-miR-4465] | -5.88% | 21.6% | 67%
CUCACUCUCAGUCCCUCCCU [hsa-miR-6794-3p] | -18.1% | 27.6% | 88.6%
CUCACUGAACAAUGAAUGCAA [hsa-miR-181b-3p] | -19.6% | 22% | 61.5%
CUCACUGAUCAAUGAAUGCA [hsa-miR-181b-2-3p] | -19.1% | 9.62% | 144%
CUCAGUAGCCAGUGUAGAUCCU [hsa-miR-222-5p] | 14% | -14.7% | 57.4%
CUCAGUGACUCAUGUGC [hsa-miR-4276] | 17.5% | -21.3% | 72.6%
CUCAUCUGCAAAGAAGUAAGUG [hsa-miR-452-3p] | 48.1% | -40.5% | 21.6%
CUCAUUUAAGUAGUCUGAUGCC [hsa-miR-5696] | -11.5% | -2.38% | 125%

Sequence | one-nucleolus phenotype percent effect [1] | 5+ nucleoli phenotype percent effect [2] | percent viability [3]
CUCCAGAGGGAAGUACUUUCU [hsa-miR-520a-5p] | 23.8% | -28.3% | 34.6%
CUCCAGAGGGAUGCACUUUCU [hsa-miR-525-5p] | 20.6% | -22.1% | 36.5%
CUCCCACAUGCAGGGUUUGCA [hsa-miR-188-3p] | -6.75% | 25% | 57.7%
CUCCCACUUCCAGAUCUUUCU [hsa-miR-3156-3p] | -4.85% | 12% | 34.1%
CUCCCCGGCCUCUGCCCCCAG [hsa-miR-6763-3p] | -28.1% | 39.1% | 96.4%
CUCCCCUCUCUUUCCUGUUCAG [hsa-miR-6826-3p] | 0.6% | -9.68% | 52.3%
CUCCGGGACGGCUGGGC [hsa-miR-4497] | -8.42% | 0.934% | 67.6%
CUCCGUUUGCCUGUUUCGCUG [hsa-miR-1468] | -8.9% | 30.4% | 112%
CUCCUACAUAUUAGCAUUAACA [hsa-miR-155-3p] | -5.11% | 6.71% | 119%
CUCCUAUAUGAUGCCUUUCUUC [hsa-miR-337-3p] | -11% | 2.51% | 52%
CUCCUCCACAGCCCCUGCUCAU [hsa-miR-6792-3p] | -4.72% | -21.5% | 56.4%
CUCCUCCCCUGCCUGGCCCAG [hsa-miR-6749-3p] | -2.87% | 0.0227% | 48.8%
CUCCUCUGUUUUCUUUCCUAG [hsa-miR-6780a-3p] | 25.3% | -34.9% | 34.4%
CUCCUGACUCCAGGUCCUGUGU [hsa-miR-378a-5p] | 10.6% | -8.66% | 25.2%
CUCCUGAGCCAUUCUGAGCCUC [hsa-miR-1200] | 27.4% | -30.8% | 58%
CUCCUGGGGCCCGCACUCUCGC [hsa-miR-1343] | -9.67% | 7.58% | 66.7%
CUCGAGUUGGAAGAGGCG [hsa-miR-4444] | 19.6% | -29.6% | 109%
CUCGCCCUGUCUCCCGCUAG [hsa-miR-6726-3p] | -28.4% | 66.4% | 126%
CUCGGCCGCGGCGCGUAGCCCCCGCC [hsa-miR-4665-3p] | -15.1% | 22% | 75.2%
CUCGGGAGGGCAUGGGCCAGGC [hsa-miR-6771-5p] | -0.506% | -1.93% | 50.5%
CUCGGGCGGAGGUGGUUGAGUG [hsa-miR-4750-5p] | 14.8% | -7.37% | 40.2%
CUCGGGGCAGGCGGCUGGGAGCG [hsa-miR-6727-5p] | -15.9% | 19.5% | 74.2%

— the supplement of paper PMC10899765
